Assay: yeast display, Sf9 membrane polyspecificity reagent, FACS + sequencing; frameworks hold sequencing errors
Procedure, shortened: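 In a synthetic yeast display library (Saccharomyces cerevisiae BJ5465), nanobody expression was induced with galactose for 36–48 hours. FACS gates were set low and high (top ~1%) using anti-HA fluorescence for expression and streptavidin fluorescence for binding of the Sf9 membrane reagent. Each polyreactivity label is drawn from the gate of origin.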

Row | Sequence | polyreactivity (PSR sort gate)
1 | QVQLVESGGGLVQAGGSLRLSCAASGFIIKSYAMGWYRQAPGKERELVAAISYTGSITYYADSVKGRFTISRDNAKNTVYLQMNSLKPEDTSVYYCAVGRYADQNDYWGQGTQVTVSS | high polyreactivity
2 | QVQLVESGGGLVQAGCSVRLSCAATGSSFVDNAMGWYRQAPGKERELVAANDGSADSTYYADSVKGRFTISRDNAKNTVYLQLNSLKPEATAVYYCAAVDYWTKFDYWGQGTQVTVSS | low polyreactivity
3 | QVQLVESGGGLVQAGGSLRLSCAASGYTFGQYAMGWYRQAPGKEREMVAAISSGGGSTYYADSVKGRFTISRDNAKTTVYLQMNSLKPEDTAVYYCAAQYLYPTYRYGYWGQGTQVTVSS | high polyreactivity
4 | QFQLVESGGGLVQAGGSLRLSCAASGFILWTYAMGWYRQAPGKERELVAAISTTGGSTYYADSVKGRFTISRDNAKNTVYCQMNSLKPEDTAVYYCAAQVGRGYEVYPVYKYGYWGQGTQVTVSS | high polyreactivity
5 | QVQLVESGGGLVQAGGSLRLSCAASGFTFGYYAMGWYRQAPGKERELVAAITFRGGRTYYADSVKGRFTISRDNAKNTVYLQMNSLKPEDTAVYYCAALSLVRYYHNANYYPYYYWGQGTQVTVSS | high polyreactivity
6 | QVQLVESGGGLVQAGGSLRLSCAASGSTFYIYAMGWYRQAPGKEREFFAAITWSGGRTFYADSVKGRFTISRDNAKNTVYFQMNSLKPEDTAVYYCAARFWSDKTGSRYYYWGQGTQVTVSS | high polyreactivity
7 | QVQLVESGGGLVQAGGSLRLSCAASGFIFGYKARGWYRQAPGKERELVAAISSSGGSTYYADSVKGRFTISRDNAKNTVYLQMKSLKPEDTAVYYCAARPVALRKYYYWGQVTQVTVSS | low polyreactivity
8 | QVQLVESGGGLVQAGGSLRLSCAASGLTFPYNLMGWYRQAPGKERELVASITSVGTTDYADSVKGRFTISRDNAKNTVYLQMNSLKPEDTAVYYCAADVTMFYWWYGKEDYDFWGQGNQVTVSS | low polyreactivity
9 | QVQLVESGGGLVQAGGSLRLSCAASGRIFGGYTMGWYRQAPGKERELVAAIRWSGGRTYYADSVKGRFTISRDNAKNTVYLQMNSLKPEDTAVYYCNRTPRYTIRYGYWGQGTQVTVSS | high polyreactivity
10 | QVQLVESGGGLVQAGGSLRLSCAASGSTFYPYAMGWYRQAPGKEREFVAGISRSGGTTYYADSVKGRFTISRDNAKNTVYLQMNSLKPEDTAVYYCAVQIPYVYWSYDYWGQGTQVTVSS | low polyreactivity
11 | QVQLVESGGGLVQAGGSLRLSCAASGITFYGYDMGWFRQAPGKERELVASSTYYADSVKGRFTISRDNAKNTVYLQMNSLKPEDTAVYYCITVYYQWVTYGYWGQGTQVTVSS | high polyreactivity
12 | QVQLVESGGGLVQAGGSLRLSCAASGSTFVGYAMGWYRQAPGKERELVAAISYSGGSTYYADSVKGRFTISRDNAKNTVYLQMNSLKPEDTAVYYCAAEWSRHYYYGPRYDYWGQGTQVTVSS | low polyreactivity
13 | QGQLVESGGGLVQAGGSLRLSCAASGSIFSHYAMGWYRQAPGKEMELVAAISRSGGSTYYADSVKGRFTISRDNAKNTVYLQMNCLKPEDTAVYYCAKEGDSGYWFDYWGQGTQVTVSS | low polyreactivity
14 | QVQLVESGGGLVQAGGRLRLSCAASGYTFPLYARGWYRQAPGKERELVADINIGGASSYYADSVKGRVTISRDNAKKTVYLQMNSLKPEDTAVYYCAKEYYDGYFPTFDYDYWGQGTQVTVSS | low polyreactivity
15 | QVQLVESGGGLVQAGGSLRLSCAASGSTFSVYTMGWYRQAPGKERELVAAITSGGTYYADSVKGRFTISRDNAKNTVYLQMNSLKPEDTAVYYCAADVLSVGKHYDYWGQCTQVTVSS | low polyreactivity
16 | QVQLVESGGGLVQAGGSLRLSCAASGSTFSDYAMGWYRQAPGKERELVAGITGGGGTYYADSVKGRFTISRDNAKNTVYLQMNSLKPEDTAVYYCAAGRRHGFGYWGQGTQVTVSS | low polyreactivity

Row | Sequence | polyreactivity (PSR sort gate)
17 | QVQLVESGGGLVQAGGSLRLSCAASGNTFHYYTMGWYRQAPGKERELVAAITRSAGRTYYADSVKGRFTISRDNAKTTVYLQMNSLKPEDTAVYYCATERERTMGYWGQGTQVTVSS | high polyreactivity
18 | QVQLVESGGGLVQAGGRLRLSCAASGITFYRYAMGWYIQAPGKERELVASISSRGSSSYYADSVKGRFTISRDNAKNTVYLQRNSLKPEDTAVYYCAKSRGSRGFVASTYNYWGQGTQVTVSS | high polyreactivity
19 | QVQLVESGGGLVQAGGSLRLSCAASGRTFSVYAKGWYRQAPGKERELVAGITSGGSTNYADSVKGRFTISRDNAKNTVYLQMNSLKPEDTAVYYCAAENVYAGFGFVSIGDYWGHGTQVTVSS | low polyreactivity
20 | QVQLVESGGGLVQAGGSLRLSCAASGSIFFKYTLGWYRQAPGKERELVAAISYSGGRTYYADSVKGRFTISRDTAKNTVYLQMNSLKPEDTAVYDGATRDEITHGDRMDYWGQGTQVTVSS | low polyreactivity
21 | QVQLVESGGGLVQAGGSLRLSCAASGLTFKYNAMGWYRQAPGKERELVAGISWSTSSTYYADSVKGRFTISRDNAKNTVYLQMNSLKPEDTAVYYCAVYTITGRVLRQGPLYRHYYWGQGTQVTVSS | high polyreactivity
22 | QVQLVESGGGLVQAGGSLRLSFAASGFTFTLYAMGLYRQAPGKEREFVAAITARGGSTYYADSVKGRFTISRDNAKNTVYLQMNSLKPEDTAVYYCNKEYGSRRYPYRYNYWGQGTQVTVSS | high polyreactivity
23 | QVQLVESGGGLVQAGGSLRLSCAASGITLGYYVMGWYRQAPGKERELVAAISSSGGRTYYADSVKGRFTISRDNAKNTVYLQMNSLKPEDTAVYYCAADLGRGIYDYWGQGTQVTVSS | low polyreactivity
24 | QVQLVESGGGLVQAGGSLRLSCAASGRIFRYYAMGWYRQAPGKERELVATISGRGGSTYYADSVKGRFTISRDNAKNTVYREMNSLKPEDTAVYYCYTVSTRYIYDYWGQGTQVTVSS | high polyreactivity
25 | QVQLVESGVGLVQAGGSLRLSCASSGILVYNAMAWYRQAPGKERELVAAISARGGRTYYADSVKGRFTISRDNAKNTVYLQMNSLKPEDTAVYYCATLETTGVNYWGQGTQVTVSS | high polyreactivity
26 | QVQLVESGGGLVQAGGSLRLSCAASGRIFRGYGMGWYRQAPGKERELVAAITSRGGSTYYADSVKGRFTISRDNAKYTVYLQMNSLKPEDTAVYYCNRDFNHRPLQSPKRPPKLGYWGQGTQVTVSS | high polyreactivity
27 | QFQLVDSVGGLDQAGGSLRLSSDASGLTLIGNAMGWYRQAPVKERELVASITIGGTTYADSVKGRFTISRDNAKNTVYLQMNSLKPEDTEVYYCAADFSSFSIDTGYDYWGQGTQVTVSS | low polyreactivity
28 | QVQLVESGGGLVQAGGSLRLSCAASGFTFTSYAMGWYIQAPGKERELVAAINRSGGSTTYADSVKGRFTISRDNAKNTVYLQMNSQKPEDTAVYYCAKAFRGHYWGQGTQVTVSS | high polyreactivity
29 | QVQLVESGGGLVQAGGSLRLSCAASGRTFAPYAMGWYRQAPGKERELVARITWSGTDTYYADSVKGRFTISRDNAKNNVYLQMNSLKPEDTAVYYCAADARYSRRYYYWGQGTQVTVSS | low polyreactivity
30 | QVQLVESGGGLVQAGGSLRLSCAASGSTFNYYAMGWYRQAPGKERELVARISWSGSTYADSVKGRFTISRDNAKNTVYLQMNSLKPEDTAVYYCAAPYVQKSHRGMDYWGQGTQVTVSS | low polyreactivity
31 | QVQLVESGGGLVQAGGSLRLSCAASGFTFYIYAMGWYRQAPGKERELVAAITTSGDSTYYADSVKGRFTISRDNAKNTVYLQMNSLKPEDTAVYYCAAEYWYTYSWGQGTQVTVLS | low polyreactivity
32 | QVQLVESGGGLVQAGGSLRLSCAASGRIFVCYAMGLYRQAPGKERELVAAISSSCGSTYYADSVKGRFTISRDKAKNTVYLQMNSLKPEDTAVYYCNTHQRSRMDYWVQGTQVTVSS | low polyreactivity

Reference: the nanobody polyreactivity screen of Harvey et al. (2022)
